Data published in patent publication US20060263802A1 (CRUCELL HOLLAND B V, published 2006).

Columns and labels:
Experiment in all cases: PEPSCAN ELISA, looped peptide, antibody 10 µg/ml
[1] = target: looped/cyclic peptide … (rabies virus strain ERA)
[2] = target: looped/cyclic peptide … (rabies virus strain ERA); remark: listed apart in the source
[3] = target: looped/cyclic peptide … (rabies virus strain ERA); remark: listed apart in the source
[4] = target: looped/cyclic peptide … (rabies virus strain ERA); remark: listed apart in the source
[5] = target: looped/cyclic peptide … (rabies virus strain ERA); remark: listed apart in the source
[6] = target: looped/cyclic peptide … (rabies virus strain ERA); remark: listed apart in the source
[7] = target: looped/cyclic peptide … (rabies virus strain ERA); remark: listed apart in the source
[8] = target: looped/cyclic peptide … (rabies virus strain ERA); remark: listed apart in the source
[9] = target: looped/cyclic peptide … (rabies virus strain ERA); remark: listed apart in the source
[10] = target: looped/cyclic peptide … (rabies virus strain ERA); remark: listed apart in the source
[11] = target: looped/cyclic peptide … (rabies virus strain ERA); remark: listed apart in the source
[12] = target: looped/cyclic peptide … (rabies virus strain ERA); remark: listed apart in the source
[13] = target: looped/cyclic peptide … (rabies virus strain ERA); remark: listed apart in the source
[14] = target: looped/cyclic peptide … (rabies virus strain ERA); remark: listed apart in the source
[15] = target: looped/cyclic peptide … (rabies virus strain ERA); remark: listed apart in the source
[16] = target: looped/cyclic peptide … (rabies virus strain ERA); remark: listed apart in the source
[17] = target: looped/cyclic peptide … (rabies virus strain ERA); remark: listed apart in the source
[18] = target: looped/cyclic peptide … (rabies virus strain ERA); remark: listed apart in the source
[19] = target: looped/cyclic peptide … (rabies virus strain ERA); remark: listed apart in the source
[20] = target: looped/cyclic peptide … (rabies virus strain ERA); remark: listed apart in the source
[21] = target: looped/cyclic peptide … (rabies virus strain ERA); remark: listed apart in the source
[22] = target: looped/cyclic peptide … (rabies virus strain ERA); remark: listed apart in the source
[23] = target: looped/cyclic peptide … (rabies virus strain ERA); remark: listed apart in the source
[24] = target: looped/cyclic peptide … (rabies virus strain ERA); remark: listed apart in the source
[25] = target: looped/cyclic peptide … (rabies virus strain ERA); remark: listed apart in the source
[26] = target: looped/cyclic peptide … (rabies virus strain ERA); remark: listed apart in the source
[27] = target: looped/cyclic peptide … (rabies virus strain ERA); remark: listed apart in the source
[28] = target: looped/cyclic peptide … (rabies virus strain ERA); remark: listed apart in the source
[29] = target: looped/cyclic peptide … (rabies virus strain ERA); remark: listed apart in the source
[30] = target: looped/cyclic peptide … (rabies virus strain ERA); remark: listed apart in the source
[31] = target: looped/cyclic peptide … (rabies virus strain ERA); remark: listed apart in the source
[32] = target: looped/cyclic peptide … (rabies virus strain ERA); remark: listed apart in the source
[33] = target: looped/cyclic peptide … (rabies virus strain ERA); remark: listed apart in the source
[34] = target: looped/cyclic peptide … (rabies virus strain ERA); remark: listed apart in the source
[35] = target: looped/cyclic peptide … (rabies virus strain ERA); remark: listed apart in the source
[36] = target: looped/cyclic peptide … (rabies virus strain ERA); remark: listed apart in the source
[37] = target: looped/cyclic peptide … (rabies virus strain ERA); remark: listed apart in the source
[38] = target: looped/cyclic peptide … (rabies virus strain ERA); remark: listed apart in the source
[39] = target: looped/cyclic peptide … (rabies virus strain ERA); remark: listed apart in the source
[40] = target: looped/cyclic peptide … (rabies virus strain ERA); remark: listed apart in the source
[41] = target: looped/cyclic peptide … (rabies virus strain ERA); remark: listed apart in the source
[42] = target: looped/cyclic peptide … (rabies virus strain ERA); remark: listed apart in the source
[43] = target: looped/cyclic peptide … (rabies virus strain ERA); remark: listed apart in the source
[44] = target: looped/cyclic peptide … (rabies virus strain ERA); remark: listed apart in the source
[45] = target: looped/cyclic peptide … (rabies virus strain ERA); remark: listed apart in the source
[46] = target: looped/cyclic peptide … (rabies virus strain ERA); remark: listed apart in the source
[47] = target: looped/cyclic peptide … (rabies virus strain ERA); remark: listed apart in the source
[48] = target: looped/cyclic peptide … (rabies virus strain ERA); remark: listed apart in the source
[49] = target: looped/cyclic peptide … (rabies virus strain ERA); remark: listed apart in the source
[50] = target: looped/cyclic peptide … (rabies virus strain ERA); remark: listed apart in the source
[51] = target: looped/cyclic peptide … (rabies virus strain ERA); remark: listed apart in the source
[52] = target: looped/cyclic peptide … (rabies virus strain ERA); remark: listed apart in the source
[53] = target: looped/cyclic peptide … (rabies virus strain ERA); remark: listed apart in the source
[54] = target: looped/cyclic peptide … (rabies virus strain ERA); remark: listed apart in the source
[55] = target: looped/cyclic peptide … (rabies virus strain ERA); remark: listed apart in the source
[56] = target: looped/cyclic peptide … (rabies virus strain ERA); remark: listed apart in the source
[57] = target: looped/cyclic peptide … (rabies virus strain ERA); remark: listed apart in the source
[58] = target: looped/cyclic peptide … (rabies virus strain ERA); remark: listed apart in the source
[59] = target: looped/cyclic peptide … (rabies virus strain ERA); remark: listed apart in the source
[60] = target: looped/cyclic peptide … (rabies virus strain ERA); remark: listed apart in the source
[61] = target: looped/cyclic peptide … (rabies virus strain ERA); remark: listed apart in the source

B1: human monoclonal antibody CRJA (antibody, V domains shown)
VH: EVQLLESGGGLVQPGGSLRLSCAASGFTFSNYAMSWVRQAPGKGLEWVSAISASGHSTYLADSVKGRFTISRDNSKNTLYLQMNSLRAEDTAVYYCAKDREVTMIVVLNGGFDYWGQGTRVTVSS
VL: EIVLTQSPATLSLSPGERATLACRASQTASRYLAWYQQKPGQAPRLLIYDTSNRATGIPARFSGSGSGTDFTLSISSLEPEDFAVYYCQQRFNWPWTFGQGTKVEFK
[1]
  OD value: 104 OD
[2]
  OD value: 68 OD
[3]
  OD value: 86 OD
[4]
  OD value: 54 OD
[5]
  OD value: 57 OD
[6]
  OD value: 38 OD
[7]
  OD value: 55 OD
[8]
  OD value: 79 OD
[9]
  OD value: 43 OD
[10]
  OD value: 90 OD
[11]
  OD value: 83 OD
[12]
  OD value: 69 OD
[13]
  OD value: 71 OD
[14]
  OD value: 96 OD
[15]
  OD value: 96 OD
[16]
  OD value: 66 OD
[17]
  OD value: 93 OD
[18]
  OD value: 57 OD
[19]
  OD value: 71 OD
[20]
  OD value: 105 OD
[21]
  OD value: 72 OD
[22]
  OD value: 45 OD
[23]
  OD value: 45 OD
[24]
  OD value: 79 OD
[25]
  OD value: 71 OD
[26]
  OD value: 83 OD
[27]
  OD value: 78 OD
[28]
  OD value: 78 OD
[29]
  OD value: 82 OD
[30]
  OD value: 87 OD
[31]
  OD value: 96 OD
[32]
  OD value: 112 OD
[33]
  OD value: 96 OD
[34]
  OD value: 90 OD
[35]
  OD value: 58 OD
[36]
  OD value: 78 OD
[37]
  OD value: 54 OD
[38]
  OD value: 46 OD
[39]
  OD value: 58 OD
[40]
  OD value: 72 OD
[41]
  OD value: 96 OD
[42]
  OD value: 83 OD
[43]
  OD value: 100 OD
[44]
  OD value: 137 OD
[45]
  OD value: 89 OD
[46]
  OD value: 93 OD
[47]
  OD value: 89 OD
[48]
  OD value: 105 OD
[49]
  OD value: 86 OD
[50]
  OD value: 41 OD
[51]
  OD value: 41 OD
[52]
  OD value: 62 OD
[53]
  OD value: 86 OD
[54]
  OD value: 125 OD
[55]
  OD value: 96 OD
[56]
  OD value: 136 OD
[57]
  OD value: 96 OD
[58]
  OD value: 110 OD
[59]
  OD value: 110 OD
[60]
  OD value: 86 OD
[61]
  OD value: 78 OD
